Here are results for four molecules from patent US20110129459A1 (Chugai, published 2011).

Experiment [1] concerns the target T1, cytoplasmic domain-lacking human NR10 on CHO cells (hNR10-expressing CHO cells) (human, UniProt Q8NI17 20-553).
T1 construct: also called NR10-expressing cells
T1 sequence: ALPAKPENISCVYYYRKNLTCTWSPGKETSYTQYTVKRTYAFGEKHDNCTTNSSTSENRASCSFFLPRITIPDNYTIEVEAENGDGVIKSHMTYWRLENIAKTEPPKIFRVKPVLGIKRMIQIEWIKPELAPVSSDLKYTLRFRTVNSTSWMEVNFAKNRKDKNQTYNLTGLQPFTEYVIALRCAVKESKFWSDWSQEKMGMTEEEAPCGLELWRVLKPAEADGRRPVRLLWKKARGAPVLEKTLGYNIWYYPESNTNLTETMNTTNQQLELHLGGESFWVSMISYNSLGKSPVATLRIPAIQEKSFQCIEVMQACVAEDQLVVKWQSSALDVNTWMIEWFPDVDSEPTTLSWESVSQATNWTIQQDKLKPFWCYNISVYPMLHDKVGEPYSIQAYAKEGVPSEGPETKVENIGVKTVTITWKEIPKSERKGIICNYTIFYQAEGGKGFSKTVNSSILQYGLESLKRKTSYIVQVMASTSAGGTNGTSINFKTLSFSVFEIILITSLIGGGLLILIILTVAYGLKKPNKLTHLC
Nature of the experiment: FMAT competition on hNR10-expressing CHO cells: antibody titrated against FMAT Blue-labeled hIL-31; FL1 = cell-bound labeled hIL-31. Here is the method: Human IL-31 (R&D Systems) was labeled with FMAT Blue Monofunctional Reactive Dye (Applied Biosystems). 100 μl of hIL-31 prepared at 0.5 mg/ml using 50 mM sodium phosphate buffer (pH 8.0) was mixed with 5.25 μl of 25 nmoles FMAT Blue dissolved in DMSO (Junsei). After vortexing, the mixture was allowed to stand at room temperature for 15 minutes. The FMAT Blue-conjugating reaction with hIL-31 was terminated by adding 5 μl of 1 M Tris-HCl (pH 7.4) and 1.1 μl of 10% Tween20, and then FMAT Blue-labeled hIL-31 and unreacted FMAT Blue were separated by gel filtration using Superdex 75 (GE Healthcare, 17-0771-01) column with 0.1% Tween20/PBS developing solution.
(§1) Antibodies were assessed for the activity of inhibiting the IL-31/NR10 binding by using hNR10-expressing CHO cells as described below. The chimeric NS22 antibody and NS22_H0L0 (H chain, H0-SKSC/SEQ ID NO: 54; L chain, L0/SEQ ID NO: 56) were diluted at an appropriate concentration using Assay buffer (10 mM HEPES, 140 mM NaCl, 2.5 mM CaCl₂, 3 mM MgCl₂, 2% FBS, 0.01% NaN₃, pH7.4), and further eight serial dilutions were prepared at a common dilution ration of 2. The dilutions were added at 40 μl/well to plates (96-Well FMAT Plates, Applied Biosystems). Then, FMAT Blue-labeled hIL-31 was diluted 400 times with Assay buffer, and added at 20 μl/well. Finally, a cell suspension adjusted to 2.5×10⁵ cells/ml using Assay buffer was added at 40 μl/well (final 1×10⁴ cells/well). Two hours after addition of cells, the fluorescence (FL1) was measured using the 8200 Cellular Detection System (Applied Biosystems).

Experiment [2] addresses T1, cytoplasmic domain-lacking human NR10 …. Nature of the experiment: FMAT competition on hNR10-expressing CHO cells: unlabeled chimeric antibody titrated against 8.8x10^-2 µg/ml FMAT Blue-NS22; FL1 = cell-bound labeled NS22. The protocol: The antibody NS22 purified from a hybridoma culture supernatant was labeled with FMAT Blue (Applied Biosystems, 4328853). 170 μl of NS22 prepared at 1 mg/ml in PBS was mixed with 17 μl of 1 M NaHCO₃ solution and 3.4 μl of FMAT Blue (17 nmoles) dissolved in DMSO. After vortexing, the mixture was allowed to stand at room temperature for 30 minutes. The FMAT Blue conjugating reaction with NS22 was terminated by adding 8 μl of 1 M Tris-HCl (pH 7.4) and 1.9 μl of 1% Tween 20, and then FMAT Blue-labeled NS22 (FMAT Blue-NS22) and unreacted FMAT Blue were separated by gel filtration using Superdex 75 (GE Healthcare, 17-0771-01) column with 0.01% Tween20/PBS developing solution.
Each antibody was examined for inhibition of the binding of the prepared FMAT Blue-NS22 to hNR10-expressing CHO cells (Referential Example 3) using the 8200 Cellular Detection System (Applied Biosystems, 4342920). The chimeric anti-NR10 antibodies (the constant region of each is γ1, κ) were added at various concentrations to each well containing 7500 cells and 8.8×10⁻² μg/ml FMAT Blue-NS22. The cells were allowed to stand in the dark for four hours, and then the fluorescent signal from FMAT Blue bound to the cells was measured. […] The fluorescence value FL1, which represents the binding of FMAT Blue-NS22 to NR10-expressing cells, was reduced with the increase in the concentration of antibody NS22 or NS23.

For experiment [3], the target named is T2, rhNR10 (recombinant human NR10) (human, UniProt Q8NI17 20-519, limits assumed).
T2 construct: also called IL-31 receptor; IL31RA
T2 sequence: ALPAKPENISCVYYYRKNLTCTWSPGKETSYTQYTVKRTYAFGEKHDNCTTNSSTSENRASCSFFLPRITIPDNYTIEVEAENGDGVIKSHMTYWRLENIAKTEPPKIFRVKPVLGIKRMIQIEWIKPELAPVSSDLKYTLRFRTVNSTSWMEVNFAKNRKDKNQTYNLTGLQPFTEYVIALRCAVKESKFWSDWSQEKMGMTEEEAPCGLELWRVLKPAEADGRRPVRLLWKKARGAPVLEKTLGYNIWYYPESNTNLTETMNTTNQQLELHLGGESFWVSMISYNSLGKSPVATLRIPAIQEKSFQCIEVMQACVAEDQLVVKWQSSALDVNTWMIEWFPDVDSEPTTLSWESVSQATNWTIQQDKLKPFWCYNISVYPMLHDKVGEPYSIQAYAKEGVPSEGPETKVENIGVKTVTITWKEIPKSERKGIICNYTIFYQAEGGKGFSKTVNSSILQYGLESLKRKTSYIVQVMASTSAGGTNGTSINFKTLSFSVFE
Nature of the experiment: SPR, Biacore T100; antibody captured on Protein A, rhNR10 as analyte. The protocol: (§2) Kinetic analysis of the antigen-antibody reaction was carried out using Biacore T100 (GE Healthcare Biosciences). The antigen-antibody interaction was measured by immobilizing rec-Protein A (hereinafter Protein A) (ZYMED) onto a sensor chip, capturing an antibody on the immobilized Protein A, and then reacting the antigen as an analyte. Various concentrations of rhNR10 were used as the antigen. The kinetic parameters, association rate constant kₐ (1/Ms) and dissociation rate constant kd (1/s), were calculated from the sensorgrams obtained by the measurement. Then, KD (M) was determined based on the rate constants. Each parameter was determined using Biacore T100 Evaluation Software version 1.1 (GE Healthcare Biosciences).
(§3) The running buffer used was HBS-EP+. Each antibody was prepared at 0.25 μg/ml, or prepared so that about 100 RU would bind to Protein A. rhNR10 used as an analyte was prepared at 0, 38.5, 77.0, and 154 nM, or at 0, 19.25, and 77.01 nM using HBS-EP+. In the measurement, first, the antibody solution was captured on Protein A, and an analyte solution was reacted at a flow rate of 20 μL/min for three minutes. Then, the solution was switched to HBS-EP+, and the dissociation phase was measured for five minutes. After measurement of the dissociation phase, the sensor chip was regenerated by washing with 10 mM glycine-HCl (pH 1.5). The obtained sensorgrams were kinetically analyzed using the Biacore-specific data analysis software, Biacore T100 Evaluation Software Version 1.1.
Background: In SPR one partner is held on a chip, and binding of the other changes the refractive index at the surface.

Experiment [4] addresses T1, cytoplasmic domain-lacking human NR10 …. Nature of the experiment: FMAT competition on hNR10-expressing CHO cells: antibody titrated against FMAT Blue-labeled hIL-31; FL1 = cell-bound labeled hIL-31; mean±S.D. (n=3). Here is the method:
as §1
Each variant was tested for the activity of inhibiting the hIL-31/hNR10 binding by using FMAT. The test was carried out according to the method as described in Example 4.

Experiment [5] deals with T2, rhNR10 (recombinant human NR10). In words: SPR, Biacore T100; antibody captured on Protein A, rhNR10 as analyte. The protocol:
as §2, §3
This is another data set of the same source.

Experiment [6] has the same target. The experiment is described as above. The protocol:
as §2, §3
This is another data set of the same source.

What is called Kd is the free concentration of one partner at which half of the binding sites on the other are occupied at equilibrium, for simple one-to-one binding. What is called koff is the first-order rate constant of dissociation. As usually defined, the kon is the rate constant with which the complex forms.

Several values for one entry are separate records, joined by “and”; a condition that tells them apart may be missing. Equal entries are not always repeated. Where two headings read alike, the source gives them in different places.

B1: chimeric NS22 (human gamma1, kappa) (antibody, V domains shown)
VH: EVQLQQSGPELVKPGASMKISCKASGYSFTGYIMNWVKQSHGKNLEWIGLINPYNGGTSYNQKFKGKATLTVDKSSSTAYMELLSLTSEDSAVYYCARDGYDDGPYTMDYWGQGTSVTVSS
VL: DIQMTQSPASLSASVGETVTITCRTSENIYSFLAWYQQKQGKSPHLLVYNAKTLAKGVPSRFSGSGSGTQFSLKINSLQPEDFGSYFCQHHYESPLTFGGGTKLEIK
notes: also called chimeric NS22 antibody; the chimeric antibody
In the case of B1, the “IC50 (read off the curve)” value was approximately 0.1 µg/mL in experiment [1] and approximately 0.5 µg/mL in experiment [2].

B2: chimeric NS23 (human gamma1, kappa) (antibody, V domains shown)
VH: EVQLQQSGPELVKPGTSMKISCKASGYSFTGYIMNWVKQSHGKNLEWIGLINPYNGGAEYNQKFKDKATFTVDKSSSTAYMELLSLTSEDSAVYYCARDGYDDGPYTMDYWGQGTSVTVSS
VL: DIQMTQSPASLSASVGETVTFTCRANENIYSYLAWYQQKQGKSPQLLVYNAKTLAEGVPSRFSGSGSGTQFSLKINSLQPEDFGSYYCQHHYGTPPTFGGGTKLEIK
For the molecule B2, the “IC50 (read off the curve)” value in experiment [2] is approximately 0.5 µg/mL.

B3: humanized NS22 H0L0 with constant region SKSC (H0L0-SKSC) (antibody)
heavy: QVQLVQSGAEVKKPGASVKVSCKASGYTFTGYIMNWVRQAPGQGLEWMGLINPYNGGTSYNQKFKGRVTITADESTSTAYMELSSLRSEDTAVYYCARDGYDDGPYTMDYWGQGTLVTVSSASTKGPSVFPLAPSSKSTSESTAALGCLVKDYFPEPVTVSWNSGALTSGVHTFPAVLQSSGLYSLSSVVTVPSSNFGTQTYTCNVDHKPSNTKVDKTVERKSCVECPPCPAPPVAGPSVFLFPPKPKDTLMISRTPEVTCVVVDVSHEDPEVQFNWYVDGVEVHNAKTKPREEQFNSTFRVVSVLTVVHQDWLNGKEYKCKVSNKGLPAPIEKTISKTKGQPREPQVYTLPPSREEMTKNQVSLTCLVKGFYPSDIAVEWESNGQPENNYKTTPPMLDSDGSFFLYSKLTVDKSRWQQGNVFSCSVMHEALHNHYTQKSLSLSPGK
light: DIQMTQSPSSLSASVGDRVTITCRTSENIYSFLAWYQQKPGKAPKLLIYNAKTLAKGVPSRFSGSGSGTDFTLTISSLQPEDFATYYCQHHYESPLTFGGGTKVEIKRTVAAPSVFIFPPSDEQLKSGTASVVCLLNNFYPREAKVQWKVDNALQSGNSQESVTEQDSKDSTYSLSSTLTLSKADYEKHKVYACEVTHQGLSSPVTKSFNRGEC
Regarding B3, the Kd is 3.3 nM in experiment [3]; 3.2 nM in experiment [5]; 3.2 nM and 5.1 nM in experiment [6]. In addition, the koff is 0.0012 s⁻¹ in experiment [3]; 0.00091 s⁻¹ in experiment [5]; 0.00062 s⁻¹ and 0.00074 s⁻¹ in experiment [6]. Further, the kon in experiment [3] is 370000 M⁻¹ s⁻¹; in experiment [5], 290000 M⁻¹ s⁻¹; in experiment [6], 190000 M⁻¹ s⁻¹ and 150000 M⁻¹ s⁻¹. For the same molecule, the “IC50 (read off the curve)” value in experiment [4] and in experiment [1] was approximately 0.1 µg/mL throughout.

B4: humanized NS22 H1L0 (H1-SKSC / L0) (antibody, V domains shown)
VH: QVQLVQSGAEVKKPGASVKVSCKASGYTFTGYIMNWVRQAPGQGLEWMGLINPYNGGTSYNQKFKGRVTITADKSTSTAYMELSSLRSEDTAVYYCARDGYDDGPYTMDYWGQGTLVTVSS
VL: DIQMTQSPSSLSASVGDRVTITCRTSENIYSFLAWYQQKPGKAPKLLIYNAKTLAKGVPSRFSGSGSGTDFTLTISSLQPEDFATYYCQHHYESPLTFGGGTKVEIKR
Consider B4, for which, in experiment [1], the binding result was “binds”.
